Experimental findings from US20180009877A1 (ACADEMIA SINICA, published 2018) are described below.

B1: M32 (antibody)
chain: MAELGIELTQSQKFMSTSVGDRVSITCKASQNVGTAVAWYQQKPGQSPKLLIYSASNRYTGVPDRFTGSGSGTDFTLTISNMQSEDLADYFCQQYSSYPLAFGGGTKLEIKSSGGGGSGGGGGGSSRSSLEVQLVESGAELVRPGALVKLSCKASGFNIKDYFMYWVKQRPEQGLEWVGWIDPENGNTIYDPKFQGKASITADTSSNTAYLQLSSLTSEDTAVYYCTRGYYGSRVLAMDYWGQGTSVTVSSAKTTPPSVTSAAA
notes: also called antibody M32
B2: M62 (antibody)
chain: MAELDIQMIQSQKFMSTSVGDRVSVTCKASQNVGTNVAWYQQKPGQSPKALIHSASYRYSGVPDRFTGSGSGTDFTLTISNVQSEDLAEYFCQQYNSYPLTFGAGTKLEIKSSGGGGSGGGGGGSSRSSLEVQLQQSGTELARPGASVKLSCKASGYTFIDYYITWVKQRTGQGLEWIGEIYPGGGNPYYNDNFKGKASLTADKSSNTVYMQLSSLTSEDSAVYFCARSYKYDVSVYWGQGTLVTVSAAKTTPPSVTSAAAGAPVPYPDPLEPRAA
notes: also called antibody M62
B3: H32 (antibody)
chain: DIQMTQSPSSLSASVGDRVTITCKASQNVGTAVAWYQQKPGKAPKLLIYSASNRYTGVPSRFSGSGSGTDFTLTISSLQPEDFATYYCQQYSSYPLAFGQGTKVEIKRGGGGSIEGRSGGGGSEVQLVESGGGLVQPGGSLRLSCKASGFNIKDYFMYWVRQAPGKGLEWVGWIDPENGNTIYDPKFQGRFTISADTSKNTAYLQMNSLRAEDTAVYYCTRGYYGSRVLAMDYWGQGTLVTVSSASAAA
notes: also called antibody H32
B4: M64 (antibody)
chain: MAELDIQMNQSHKFMSTSVGDRVSITCKASQDVSTAVAWYQQKPGQSPKLLIYWASTRHTGVPGRFTGSGSGADYTLTISSVQAEDLALYYCQQHYSTPYTFGGGTKLEIKSSGGGGSGGGGGGSSRSSLEVQLQQSGAELVKPGASVKLSCTASGFNIKNTYMHWVKQRPEQGLEWIGRIDPANGNTKYDPKLQGKATITADTSSNTAYLHLSSLTSEDTAVYYCVPYYRGAMDYWGQGTSVTVSSESQSFPNVTSAAAGAPVPYPDPLEPRAA
B5: M63 (antibody)
chain: MAELDAVVTQESALTTSPGETVTLTCRSSTGTVTTSNYANWVQEKPDHLFTGLIGGTKNRAPGVPARFSGSLIGDKAALTITGAQTEDEAIYFCALWYSNHWVFGGGTKLTVLGSSGGGGSGGGGGGSSRSSLEVQLQQSGPELVRPGDSVKISCKASGYTFSDYAVHWVKRSHGKSLEWIGVISIYYDNINYNQNFKGKATMTVDKSSSTAYLELARLTSEDSAIYYCARRGFDYWGPGTTLTVSSAKTTAPSVTSAAA
B6: M61 (antibody)
chain: MAELDIKITQSPASLSASVGETVTITCRASENIYSYLAWYQQKQGKSPQLLVYNAKTLAEGVPSRFSGSGSGTQFSLKINSLQPEDFGSYYCQHHYGTPYTFGGGTKLELKSSGGGGSGGGGGGSSRSSLEVQLQQSGAELVKPGASVKMSCKAFGYTFTTYPIEWMKQNHGKSLEWIGNFHPYNDDTKYNEKFKGKAKLTVEKSSSTVYLELSRLTSDDSAVYYCARRNDGYYGAMDYWGQGTSVTVSSAKTTAPSVTSAAAGAPVPYPDPLEPRAA
B7: M41 (antibody)
chain: MAELDIQMTQTTSSLSASLGDRVTISCRTSQDISNYLNWYQQKPNGTIKLLIYYTSGLYSGVPSRFSGSGSGADYSLTISNVEQEDIATYFCQQVNTLPYTFGGGTKLELKSSGGGGSGGGGGGSSRSSFEVQLQQSGAELVKPGASVKMSCKAFGYTFTTYPIEWMKQNHGKSLEWIGNFHPYNDYTNYNEKFKGKAKLTVEKSSTTVYLELSRLTSDDSAVYYCARRHDGYYGAMDYWGQGTSVTVSSAKTTAPSVTSAAAGAPVPYPDPLEPRAA
notes: also called antibody M41

The first test deals with T1, polypeptide HER2/ECD (human, UniProt P04626 23-646). As to the kind of experiment: SPR (BIAcore), HER2/ECD immobilized, IgG in flow. Background: SPR reads the build-up and loss of mass on a sensor chip optically.
Procedure: BIAcore T200 (GE Healthcare) instrument was used to determine the binding affinities and kinetic parameters for interactions between antibody and antigen HER2/ECD. HER2/ECD in 10 mM acetate buffer (pH 5.0) was immobilized on a CM5 sensor chip to a response unit (RU) of 1000 with an amine coupling kit. Association (kₒₙ) and dissociation (koff) constants of the interactions between IgGs and HER2/ECD were measured in PBST running buffer (0.05% Tween 20) with a flow rate of 30 μL/min. […] Binding kinetics was determined by global fitting to 1:1 binding model using the Biaevaluation software (GE Healthcare).
Usually Kd stands for the equilibrium constant for the complex coming apart. A low value points to tighter binding. As a reminder, the koff is the first-order rate constant of dissociation. For orientation: kon means the second-order rate constant of association. The molecule B1 came in with a Kd of 0.243 nM, a koff of 7.15e-05 s⁻¹ and a kon of 294000 M⁻¹ s⁻¹.
B2 yielded a Kd of 0.0228 nM, a dissociation rate constant (koff) of 1.8e-05 s⁻¹ and an on-rate (kon) of 788000 M⁻¹ s⁻¹.
The molecule B3 came in with a Kd of 0.242 nM, a koff of 3.85e-05 s⁻¹ and a kon of 159000 M⁻¹ s⁻¹.
The like results for B4 were, in that order, 0.195 nM, 0.000337 s⁻¹ and 1.74e+06 M⁻¹ s⁻¹.
Take B5: the koff turned out to be 7.34e-05 s⁻¹.
As for B6, binding was characterised by a dissociation constant (Kd) of 0.591 nM, the koff is 0.0024 s⁻¹ and the kon turned out to be 4.06e+06 M⁻¹ s⁻¹.
The like results for B7 were, in that order, 0.0519 nM, 3.48e-05 s⁻¹ and 671000 M⁻¹ s⁻¹.

The next test concerns the target T1, polypeptide HER2/ECD. As to the kind of experiment: ELISA, IgG on immobilized HER2/ECD.
Procedure: The EC₅₀ of antibody was determined by titrating the antibody on immobilized HER2/ECD with ELISA. Briefly, NUNC 96-well Maxisorb immunoplates were coated with HER2/ECD peptides (0.2 μg per well) in PBS buffer (pH 7.4) via overnight incubation at 4° C., the plates were then blocked with 5% skim milk in PBST [0.05% (v/v) Tween 20] for 1 h. In the meantime, twofold serial dilutions of the antibody in PBST with 5% milk were performed and 11 different concentrations of the antibody were generated. After blocking, 100 μL diluted antibody samples were added to each well, and incubated for 1 h under gentle shaking. The plate was washed 6 times with 300 μL PBST and then added with 100 μL 1:2000-diluted horse-radish peroxidase/anti-human IgG antibody conjugate in PBST with 5% milk for 1 h incubation. The plates were washed 6 times with PBST buffer and twice with PBS, developed for 3 min with 3,3′,5,5′-tetramethyl-benzidine peroxidase substrate (Kirkegaard & Perry Laboratories), quenched with 1.0 M HCl and read spectrophotometrically at 450 nm.
Broadly, the EC50 is the concentration that produces a half-maximal response. A higher EC50 goes with lower potency in that assay. With B1, it took 3.1 ng/mL to reach a half-maximal effect (EC50).
On to B2, for which a half-maximal effect (EC50) was put at 2 ng/mL.
Regarding B3, a half-maximal response (EC50) required 3.2 ng/mL.
In the case of B4, the concentration giving a half-maximal response (EC50) amounted to 3.1 ng/mL.
The molecule B5 gave an EC50 of 2.4 ng/mL.
Same read-out and setting: then B6, with 3.5 ng/mL; and B7, with 3.4 ng/mL.
